Test results: article PMC10786891, “Massively parallel profiling of RNA-targeting CRISPR-Cas13d”

T1: EsCas13d, nuclease-dead (Eubacterium siraeum, UniProt B0MS50, R295A;H300A;R849A;H854A)
T1 sequence: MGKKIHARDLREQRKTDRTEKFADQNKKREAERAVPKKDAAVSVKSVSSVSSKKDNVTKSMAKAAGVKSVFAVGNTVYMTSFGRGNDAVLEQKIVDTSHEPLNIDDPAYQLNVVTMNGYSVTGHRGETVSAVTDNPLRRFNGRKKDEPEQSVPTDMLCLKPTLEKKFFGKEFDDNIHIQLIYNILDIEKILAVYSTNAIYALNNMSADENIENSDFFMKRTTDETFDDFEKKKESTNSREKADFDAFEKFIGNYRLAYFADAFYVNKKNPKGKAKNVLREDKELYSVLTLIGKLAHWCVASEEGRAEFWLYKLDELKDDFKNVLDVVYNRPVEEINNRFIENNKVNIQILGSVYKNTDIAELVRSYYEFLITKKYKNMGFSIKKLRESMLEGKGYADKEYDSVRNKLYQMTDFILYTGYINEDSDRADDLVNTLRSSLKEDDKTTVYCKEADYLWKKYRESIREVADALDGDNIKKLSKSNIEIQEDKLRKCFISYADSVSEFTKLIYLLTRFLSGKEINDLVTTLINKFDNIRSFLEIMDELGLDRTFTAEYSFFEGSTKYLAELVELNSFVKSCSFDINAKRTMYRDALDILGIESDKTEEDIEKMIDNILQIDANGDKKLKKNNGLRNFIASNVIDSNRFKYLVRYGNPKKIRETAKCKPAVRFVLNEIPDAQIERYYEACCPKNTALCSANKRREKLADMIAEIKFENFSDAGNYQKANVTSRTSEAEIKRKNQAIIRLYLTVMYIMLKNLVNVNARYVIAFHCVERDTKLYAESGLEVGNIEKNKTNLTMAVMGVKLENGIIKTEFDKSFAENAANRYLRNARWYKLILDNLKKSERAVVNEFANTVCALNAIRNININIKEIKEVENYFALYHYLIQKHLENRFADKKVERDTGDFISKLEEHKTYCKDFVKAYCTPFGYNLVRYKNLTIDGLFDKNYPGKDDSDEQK

B1: target 1 C2A,A20C (mixed)
RNA 1: CACCCGUGCAAAAAUGCAGGGGUCUAAAACUGAGCGGAUAACCUCUCUAUGG
RNA 2: GGGAAUGGAUCCACAUCUACGAAUUCGUACCCUAGAGAGGUUAUCCGCUAACCGAGAUCGGAAGAGCACACGU
B2: target 1 insC 3' of 19,insC 3' of 19 (mixed)
RNA 1: CACCCGUGCAAAAAUGCAGGGGUCUAAAACUGAGCGGAUAACCUCUCUAUGG
RNA 2: GGGAAUGGAUCCACAUCUACGAAUUCGUACCAUCCAGAGAGGUUAUCCGCUCACCGAGAUCGGAAGAGCACACGU
B3: target 1 insU 3' of 7,insG 3' of 7 (mixed)
RNA 1: CACCCGUGCAAAAAUGCAGGGGUCUAAAACUGAGCGGAUAACCUCUCUAUGG
RNA 2: GGGAAUGGAUCCACAUCUACGAAUUCGUACCAUAGAGAGGUUAUCUGCGCUCACCGAGAUCGGAAGAGCACACGU
B4: target 1 A20C,C21G (mixed)
RNA 1: CACCCGUGCAAAAAUGCAGGGGUCUAAAACUGAGCGGAUAACCUCUCUAUGG
RNA 2: GGGAAUGGAUCCACAUCUACGAAUUCGUACGCUAGAGAGGUUAUCCGCUCACCGAGAUCGGAAGAGCACACGU
B5: target 1 insG 3' of 10,insC 3' of 5 (mixed)
RNA 1: CACCCGUGCAAAAAUGCAGGGGUCUAAAACUGAGCGGAUAACCUCUCUAUGG
RNA 2: GGGAAUGGAUCCACAUCUACGAAUUCGUACCAUAGAGAGGUUGAUCCGCCUCACCGAGAUCGGAAGAGCACACGU
B6: target 1 insC 3' of 5,insA 3' of 5 (mixed)
RNA 1: CACCCGUGCAAAAAUGCAGGGGUCUAAAACUGAGCGGAUAACCUCUCUAUGG
RNA 2: GGGAAUGGAUCCACAUCUACGAAUUCGUACCAUAGAGAGGUUAUCCGCACUCACCGAGAUCGGAAGAGCACACGU
B7: target 1 C6A,C21A (mixed)
RNA 1: CACCCGUGCAAAAAUGCAGGGGUCUAAAACUGAGCGGAUAACCUCUCUAUGG
RNA 2: GGGAAUGGAUCCACAUCUACGAAUUCGUACAAUAGAGAGGUUAUCAGCUCACCGAGAUCGGAAGAGCACACGU
B8: target 1 insA 3' of 15,insU 3' of 14 (mixed)
RNA 1: CACCCGUGCAAAAAUGCAGGGGUCUAAAACUGAGCGGAUAACCUCUCUAUGG
RNA 2: GGGAAUGGAUCCACAUCUACGAAUUCGUACCAUAGAGAAUGGUUAUCCGCUCACCGAGAUCGGAAGAGCACACGU
B9: target 1 U8C,A16U (mixed)
RNA 1: CACCCGUGCAAAAAUGCAGGGGUCUAAAACUGAGCGGAUAACCUCUCUAUGG
RNA 2: GGGAAUGGAUCCACAUCUACGAAUUCGUACCAUAGUGAGGUUACCCGCUCACCGAGAUCGGAAGAGCACACGU
B10: target 1 insG 3' of 20,insC 3' of 19 (mixed)
RNA 1: CACCCGUGCAAAAAUGCAGGGGUCUAAAACUGAGCGGAUAACCUCUCUAUGG
RNA 2: GGGAAUGGAUCCACAUCUACGAAUUCGUACCAGUCAGAGAGGUUAUCCGCUCACCGAGAUCGGAAGAGCACACGU
B11: target 1 del3,del15 (mixed)
RNA 1: CACCCGUGCAAAAAUGCAGGGGUCUAAAACUGAGCGGAUAACCUCUCUAUGG
RNA 2: GGGAAUGGAUCCACAUCUACGAAUUCGUACCAUAGAAGGUUAUCCGCCACCGAGAUCGGAAGAGCACACGU
B12: target 1 U3G,U19C (mixed)
RNA 1: CACCCGUGCAAAAAUGCAGGGGUCUAAAACUGAGCGGAUAACCUCUCUAUGG
RNA 2: GGGAAUGGAUCCACAUCUACGAAUUCGUACCACAGAGAGGUUAUCCGCGCACCGAGAUCGGAAGAGCACACGU
B13: target 1 insA 3' of 22,insA 3' of 7 (mixed)
RNA 1: CACCCGUGCAAAAAUGCAGGGGUCUAAAACUGAGCGGAUAACCUCUCUAUGG
RNA 2: GGGAAUGGAUCCACAUCUACGAAUUCGUACACAUAGAGAGGUUAUCACGCUCACCGAGAUCGGAAGAGCACACGU

Biological target: T1, EsCas13d, nuclease-dead
Assay: crRNA (strand 1, pre-loaded); Mg2+; 40 mM Tris-HCl pH 7.5, 150 mM NaCl, 6 mM MgCl2, 1 mM DTT, 0.1% Tween-20, 0.2 mg/ml BSA; 25 C; 10 min per concentration, then washed
Conditions: tags: His6-TwinStrep-SUMO cleaved; N-terminal SNAP kept (SNAP-Surface 488); label: 3' end held by stalled T7 RNA polymerase

Row | Binder | Kd [nM]
1 | B1 | 36 ± 4
2 | B2 | 29.2 ± 3.5
3 | B3 | 9.1 ± 0.6
4 | B4 | 57 ± 26
5 | B5 | 46 ± 8
6 | B6 | 11.5 ± 0.5
7 | B7 | 23.5 ± 1.7
8 | B8 | 21.1 ± 1.8
9 | B9 | 59 ± 8
10 | B10 | 59 ± 10
11 | B11 | 30.2 ± 3.3
12 | B12 | 25.1 ± 3.4
13 | B13 | 8 ± 0.6
